{"source": "patent US8324344B2", "about": "“Membrane transduction peptides and methods of delivering material to a target cell” (STC.UNM, priority 2008, dated 2012)", "molecules": {"B1": {"name": "TFPI-2: Human tissue factor pathway inhibitor-2, a 32 kDa Kunitz-type serine proteinase inhibitor (SEQ ID NO:1), recombinant from HEK 293 (protein, listed as Homo sapiens)", "chain": "DAAQEPTGNNAEICLLPLDYGPCRALLLRYYYDRYTQSCRQFLYGGCEGNANNFYTWEACDDACWRIEKVPKVCRLQVSVDDQCEGSTEKYFFNLSSMTCEKFFSGGCHRNRIENRFPDEATCMGFCAPKKIPSFCYSPKDEGLCSANVTRYYFNPRYRTCDAFTYTGCGGNDNNFVSREDCKRACAKALKKKKKMPKLRFASRIRKIRKKQF", "modifications": "tissue factor pathway inhibitor-2"}}, "key": {"human tumor cell lines": {"system": "human tumor cell lines", "details": "several tumor cell lines, exogenously offered; Kempaiah and Kisiel 2008; cited from earlier work"}, "HT-1080 cells [1]": {"system": "HT-1080 cells", "assay": "Localization of protein in stably-transfected overexpressing HT-1080 cells, immunoblotting and immunocytochemistry", "type": "cell-based, human", "details": "HT-1080 cells stably transfected with cDNA (FIG. 3, FIG. 4C, 4D)", "method": "HT-1080 and HEK 293 cell lines were stably transfected to overexpress either wild-type human TFPI-2 or a mutant TFPI-2 construct lacking the carboxy-terminal tail (TFPI-2^1-188), and were maintained as described (Chand et al., Blood, 2004;103:1069-1077, Du et al., Arch. Biochem. Biophys:, 2003;417:96-104). An anti-human TFPI-2 murine monoclonal antibody designated as SK-9 was prepared as described (Du et al., Arch. Biochem. Biophys., 2003;417:96-104) and coupled to Affi-Gel 10 according to the manufacturer's recommendation. Recombinant human TFPI-2 was purified from HEK 293 serum-free conditioned media by a two-step chromatography procedure involving heparin-agarose (Sprecher et al., Proc. Natl. Acad. Sci. USA., 1994;91:3353-3357) and SK-9-AffiGel 10 affinity chromatography. In the latter procedure, heparin-agarose purified TFPI-2 was dialyzed against 50 mM Tris-HCl (pH 7.5) and applied to the SK-9-AffiGel 10 column equilibrated at room temperature with this buffer. After a wash step with 50 mM Tris-HCl (pH 7.5)/0.5 M NaCl, TFPI-2 was eluted with 0.1 M glycine (pH 2.5)/0.5 M NaCl into one-tenth volume of 1 M Tris-HCl (pH 8.8) to immediately neutralize the pH 2.5 glycine. […]"}, "HT-1080 cells [2]": {"system": "HT-1080 cells", "assay": "Internalization of offered recombinant proteins in HT-1080 cells, immunoblotting of cytosolic and nuclear fractions", "type": "cell-based, human", "details": "1 μM", "method": "HT-1080 cells were grown in six-well plates under standard conditions. At confluence, the cells were treated with fresh medium containing either wild-type TFPI-2, TFPI-2^1-188, R24Q KD1, R24K KD1, or R24K KD1-CT as previously described (Kempaiah and Kisiel, Apoptosis, 2008;13:702-715). Briefly, duplicate wells were treated with purified proteins (1 μM final concentration) and incubated at either 37° C. or 4° C. for different time periods. Two wells were also treated with phosphate-buffered saline (PBS) at each temperature to serve as a control. At selected time points, the media was removed and the cells were rinsed once with PBS. The cells were then washed with 1 M NaCl/PBS for 30 minutes with gentle shaking to dissociate cell surface-bound proteins (Iino et al., Arterioscler. Thromb. Vasc. Biol., 1998;18:40-46). Finally, the cells were rinsed once with PBS, trypsinized and harvested for the preparation of cell lysates and cell fractions.\nTo prepare total cell lysates, 1-3×10^6 cells were lysed by sonication in 500 μl of lysis buffer containing of 125 mM Tris-HCl (pH 6.8), 2% SDS, 10% glycerol, 50 mM sodium phosphate, 1 mM phenylmethanesulphonylfluoride (PMSF) and protease inhibitor cocktail. The lysate was kept on ice for about 10 minutes, centrifuged for 15 minutes at 10,000×g at 4° C., and the supernatant recovered. To prepare nuclear and cytosolic fractions, approximately 2×10^6 cells were harvested and washed twice with cold PBS by centrifugation at 600×g in a Beckman J-6M/E centrifuge for seven minutes at 4° C. Five volumes of ice cold cytosolic buffer (10 mM Hepes pH 7.4, 0.33 M sucrose, 1 mM MgCl2, 0.1% Triton X-100 and protease inhibitor cocktail) was added to the cells and incubated on ice for 15 minutes. The cytosolic fraction was collected by centrifugation at 900×g for five minutes at 4° C. The resulting undissolved pellet was washed twice with cytosolic buffer followed by centrifugation at 900×g for five minutes at 4° C. Finally, the resulting pellet was resuspended in five volumes of ice cold buffer containing 0.45 M NaCl in 10 mM Hepes (pH 7.4) and protease inhibitor cocktail. The suspension was incubated on ice for an additional 15 minutes to dissolve the nucleus, and subsequently centrifuged at 18,000×g for five minutes at 4° C. The resulting supernatant was collected as the nuclear extract. All samples were boiled for three minutes in the presence of 5% SDS and stored at −20° C. until use.\nThe cell lysate, cytosol and nuclear fractions were subjected to SDS-PAGE using 4-20% polyacrylamide gradient gels. […] The membranes were then probed with specific antibodies dissolved in fresh blocking buffer. Immunoreactive proteins were identified using HRP-conjugated secondary antibodies and a chemiluminescent reagent system essentially as described (Kempaiah et al., Mol. Cancer, 2007;6:20). The integrity of the cytosolic and nuclear fractions was verified using anti-α-tubulin and anti-histone-H1 antibodies, respectively (Guo et al., Am. J Physiol. Cell Physiol., 2007;292:2095-2102).\nThe relative intensity of the Western blot bands were quantified using QUANTISCAN software (Biosoft, Cambridge, U.K.). The intensities are reported in arbitrary units (A.U.) obtained by subtracting the background value from the corresponding band's mean value."}, "importin-α": {"system": "importin-α", "assay": "Co-immunoprecipitation assay of TFPI-2 with importin-α from HT-1080 cell lysates", "type": "binding, human", "details": "lysates of TFPI-2-treated (1 μM) HT-1080 cells or HT-1080 cells overexpressing TFPI-2; SK-9 or anti-importin-α antibody (FIG. 5)", "from_the_text": "To identify the adapter protein(s) involved in transporting TFPI-2 to the nucleus, we performed co-immunoprecipitation studies using the PROFOUND co-immunoprecipitation kit and cell lysates derived from either vehicle-treated HT-1080 cells, TFPI-2-treated HT-1080 cells or HT-1080 cells overexpressing TFPI-2. Approximately 4.5×10^6 cells from each system were washed twice with PBS, and the lysates prepared in the presence of proteinase inhibitors using the mammalian protein extraction reagent provided in the kit. Complexes of importin-α and TFPI-2 were removed from the lysate by co-immunoprecipitation according to the manufacturer's instructions. In this procedure, antibodies specific for either importin-α or TFPI-2 (SK-9) were covalently linked at room temperature for 16 hours to an amine-reactive gel in coupling buffer (8 mM sodium phosphate/2 mM potassium phosphate/10 mM KCl/140 mM NaCl [pH 7.4]). Cell lysates from the above preparations were added to the antibody-coupled columns and incubated at 4° C. for 18 hours with gentle end-over-end mixing. The columns were then washed several times with coupling buffer containing 0.5 M NaCl to remove non-specifically bound proteins, and finally eluted with the elution buffer provided in the kit. […]"}}, "note": "“Also recorded” adds a separate entry of the source."}
{"molecule": "B1", "values": [{"measurement": "Induction of caspase-mediated apoptosis", "setting": "human tumor cell lines", "result": "induce caspase-mediated apoptosis"}, {"measurement": "Localization of overexpressed protein", "setting": "HT-1080 cells [1]", "result": "cytosolic and nuclear localization of TFPI-2"}, {"measurement": "Amount localized in the nucleus in 60 minutes at 4° C. (temperature dependence)", "setting": "HT-1080 cells [2]; 4° C. versus 37° C. (FIG. 1C)", "result": "roughly equivalent to that observed in five minutes at 37 °C"}, {"measurement": "Time of maximal cytosolic and nuclear localization", "setting": "HT-1080 cells [2]; 24-72 hours incubation", "result": 48, "unit": "h"}, {"measurement": "Intracellular distribution of internalized protein", "setting": "HT-1080 cells [2]; 24-72 hours incubation, immunoblot (FIG. 1)", "result": "internalized and distributed in both the cytosolic and the nuclear fractions"}, {"measurement": "Rate of internalization and translocation to the nucleus", "setting": "HT-1080 cells [2]; 37° C., within the first 15 minutes of offering (FIG. 1A)", "result": "rapidly internalized by these cells and translocated to the nucleus within minutes of offering; also recorded: rapidly internalized by HT-1080 cells and efficiently translocated to the nucleus"}, {"measurement": "Complex formation with importin-α (co-immunoprecipitation)", "setting": "importin-α", "result": "complexes of TFPI-2 and importin-α were immunoprecipitated by each antibody; also recorded: formed complexes with importin-α"}]}
